# Measured values taken from the DeepSol protein solubility set.
# Assay: soluble on expression in E. coli; label from the status in PepcDB or PDB records
row,Sequence,soluble on expression in E. coli
1,MLSRNIGAVRGAHKAATTKPVEKVAKLGNGLTVGTIDSHKPIAHLVLAFRAGSRYEKANQAGLSHTIRNFVGRDTQEYFGNTVVWTLSQTGGVLKSFTSRDLFGVSLTIPRESTSVGLSVLGQVAGNPGFKPWEVEDVLPTMRADNGYRTAYDLVVDQIHKAAYRNGGLGNSIYAPCSKIGSICTSTLSSFAEQHFVTGNGVLFATNAVHDDLLLYGDNHAPIRSGNAASPSSSAYKGGEVRRDADSKYAHVIVAGEGAAGNNTKALATQAVLLTALGNSSPVKFNTGTTGVIAKAVGQNGSASAFQAVHADSGLAGVYLVVEGSQANQAVSNVVGALKSLKVADIEAVKKQAFNNALRASAHSDNFAIERASQLFQSQDNYIQQIPNVSASDVEVAAKKLTTKLSLASYGNVSEVPYVDTL,not soluble
2,MGSDKIHHHHHHMLSRTADHLFWMSRYTERAENTARMLNVSYETSLLPQSADVAQESWLGLLSISELIPAYTARHGEVTREGVLEFMVRDGDNPSSILSCLRAARENARAVRGALTTEIWETQNQTWLELHRQLQGRDFERDPGAFFEWVKYRSHLSRGVTLGTMLQDEAFHFLRLGTFLERADNTARLLDVKFHAVQSDFHGSAMRERGRAAPQEFDFYHWSAILRSVSAFEVYRKVYRDVITPERVADLLMLRADMPRSLHASLREVADNLAVVANDQSAETQRKAGRLLADLRYGRIDEILATGLHAYLTQFLDRVNDLGAGISRDFLVPVPA,not soluble
3,DDDGEHGGRRAALVVTDPLTRTECSACHMAYPAALLPARSWTALMADLPNHFGEDASLDEASRGQIESYLVANAADSSGAGRALRGLVQTDTPLRISELPWFKRKHADEVSPRMLEKARSMSNCAACHTGAERGLFDDD,soluble
4,MVWSATSRTKYSIKKSFFGCSMIELSNVNLHYPVPGHFSHSLQTTISSKIGGVLGSSSAKDKEMKYVHALRDINLKLEDSSRLGIIGHNGAGKTTLLRLLSQVYPPTSGKVTIEGKISALTDFTLGMDPNATGLKNIEFRLVFMGCTFKEAQQAVEEIVAFSELGEFINLPVRTYSTGMFLRLAFAISTHFTPDILILDEVIGAGDETFREKALSRLESLIKKSRMVVLSSHDLNAIKQYCDQAIVMEKGEIVFNGTPQSCIDYYLNSVKK,not soluble
5,FSAPIKAERTAFRRAVCANQYDAVIDAQGLVKSAALVTRLAHGIKHGMDWSTAREPLASLFYNRKHHIAKQQHAVERTRELFAKSLGYDKPQSQGDYAIAKHFLHCQQAVSDPYAVFLHATTRDDKHWPEANWRELIGLVGNTGLRIKLPWGAPHEEARAKRLAEGFDYVDVLPRMSLEEVARVLAGAKFVVSVDTGLSHLTAALDRPNITLYGPTDPGLIGGYGKNQ,not soluble
6,RAVDNAEPAALETSTRTIPTNGRTMTPVQATYWVGRQPDYALGGIATRFYMEHDITIDGPMDEWIDALRRSWNTVVQRHGMLRATVDRDGKISIADTVTEHPLPVHNADHAAEVRERLAHRTADLGTWPVHDIELTTITATTVRIHCGFDVILIDYPSIMRVLNDWGRALAGYDLGTEDTSFSDLIAQGIAEPCPSDEAYWRERAPRLLPGPLDLAEMTYDAATTPEFHRHTRTIAAQQWKQFVDNAHAHGTNASSALLAVAAHSLRHVGPRRSFTLGATFFSPDVLEHGPVGDFTRTGVVELPDTADTFAQQASAAQHELWEAFDHASVTSADIMRWRNSDTTGQALPDYPVVFTSALGHGDSTDWPGVMTWGVSQTPQVLMDLLHWESDGDLVLAWDCVDAALPENFADNAIDIAYAVIQQLTNPAVWTDPTVVADPWLRMPGPMERIGESELIDAPLRA,not soluble
7,GSDQVQKVDQYLYHMRLSDETLLEISKRFRKEMEKGLGATTHPTAAVKMLPTFVRSTPDGTEHGEFLALDLGGTNFRVLWVKVTDNGLQKVEMENQIYAIPEDIMRGSGTQLFDHIAECLANFMDKLQIKDKKLPLGFTFSFPCHQTKLDESFLVSWTKGFKSSGVEGRDVVALIRKAIQRRGDFDIDIVAVVNDTVGTMMTCGYDDHNCEIGLIVGTGSNACYMEEMRHIDMVEGDEGRMCINMEWGAFGDDGSLNDIRTEFDQEIDMGSLNPGKQLFEKMISGMYMGELVRLILVKMAKEELLFGGKLSPELLNTGRFETKDISDIEGEKDGIRKAREVLMRLGLDPTQEDCVATHRICQIVSTRSASLCAATLAAVLQRIKENKGEERLRSTIGVDGSVYKKHPHFAKRLHKTVRRLVPGCDVRFLRSEDGSGKGAAMVTAVAYRLADQHRARQKTLEHLQLSHDQLLEVKRRMKVEMERGLSKETHASAPVKMLPTYVCATPDGTEKGDFLALDLGGTNFRVLLVRVRNGKWGGVEMHNKIYAIPQEVMHGTGDELFDHIVQCIADFLEYMGMKGVSLPLGFTFSFPCQQNSLDESILLKWTKGFKASGCEGEDVVTLLKEAIHRREEFDLDVVAVVNDTVGTMMTCGFEDPHCEVGLIVGTGSNACYMEEMRNVELVEGEEGRMCVNMEWGAFGDNGCLDDFRTEFDVAVDELSLNPGKQRFEKMISGMYLGEIVRNILIDFTKRGLLFRGRISERLKTRGIFETKFLSQIESDCLALLQVRAILQHLGLESTCDDSIIVKEVCTVVARRAAQLCGAGMAAVVDRIRENRGLDALKVTVGVDGTLYKLHPHFAKVMHETVKDLAPKCDVSFLQSEDGSGKGAALITAVACRIREAGQ,soluble
8,MLLKPEEYIERLGEYKRDIYVLGKKIEDFVNHPNIRPTVEAMAYTYSIAEKYAPHSELVGEKVNRLNYVNQTFEDLIARYDYQRELSLKLATCNYRCTGCDAINAIYPATKALDEREGTDYHRRFLELLKEIQKKDYACTAALTDVKGDRGKRPSEQKDKYLRVVEKREDGIVVRGAKICQSGAFAADVNFVLPTQTFRPGEEEFAVVFAAMPEDEGIKYILQNTGIQAKQREGGKFEAGNKYGDRTTCMVVFDDVFIPWERVFVFEDLKAARDVVSYFAPSHRCVGAACKAGFIDSMAGAASLMLKTSGLENVSALQQKVAEMVAVSEGAFAISVGAAVKGANHNGCWLPNFQMANSGKVIGVEGFAKALMNLIDISGGIIGTSPSEFDLEMVGDFLRASEKFTAEQRLKIVKFIEFWTTSSHLVGAFHGGGSPTAALITLRFLMDLSSREEAVKNCIDF,not soluble
9,MIDQTALATEIKRLIKAAGPMPVWRYMELCLGHPEHGYYVTRDPLGREGDFTTSPEISQMFGELLGLWSASVWKAADEPQTLRLIEIGPGRGTMMADALRALRVLPILYQSLSVHLVEINPVLRQKQQTLLAGIRNIHWHDSFEDVPEGPAVILANEYFDVLPIHQAIKRETGWHERVIEIGASGELVFGVAADPIPGFEALLPPLARLSPPGAVFEWRPDTEILKIASRVRDQGGAALIIDYGHLRSDVGDTFQAIASHSYADPLQHPGRADLTAHVDFDALGRAAESIGARAHGPVTQGAFLKRLGIETRALSLMAKATPQVSEDIAGALQRLTGEGRGAMGSMFKVIGVSDPKIETLVALSDDTDREAERRQGTHGLEHHHHHH,soluble
10,MGSDKIHHHHHHMITTSNITMQFGVKPLFEKVSVKFGEGNRYGLIGANGSGKSTFMKILGGDLEQTAGEVAIENGLRLGKLRQDQFGYEDQRVIDVVMMGHTEMWAAMSERDAIYANLEATEDDYMRAADLEAKFAEYDGYTAEARAGELLMGVGIPVEQHFGPMSEVAPGWKLRVLLAQALFSNPDILLLDEPTNNLDINTIRWLEHVLNERNSTMIIISHDRHFLNSVCTHMADLDYNTIRIYPGNYDDYMIASAQARERQLSSNSKAKERIQELQEFVARFSANKSKARQATSRLKQVDKLKSEMVEVKPSSRQNPFIRFEMDDKFKLHRQAVEVEGLSKAYDNKVLFKDLNLILEAGARLAIIGPNGAGKTSLIKLLAGAFEPAYAEGLTADRGTIKWAEKAQIGYFAQDHEADFDSDATLTEWMREWGQEGDDEQVIRGTLGRLLFGGDEVGKPVRVLSGGEKGRMLYGKLILQKPNVMIMDEPTNHMDMESIESLNMALEKYKGTLIFVSHDRQFVSSLATHVLELDGKGGYDYYTGNYEDYLASKGLE,not soluble
